Measured values: US20150017651A1 (University of Texas, published 2015)

Target: T1, flag-tagged wild-type Gli1 (human, UniProt P08151 1-1106)
T1 construct: Transiently expressed in BE3 cells without TNFα stimulation; also called flag-Gli1WT; flag-Gli1; not shown: flag tag from vector p3flag-CMV10
T1 sequence (looked up): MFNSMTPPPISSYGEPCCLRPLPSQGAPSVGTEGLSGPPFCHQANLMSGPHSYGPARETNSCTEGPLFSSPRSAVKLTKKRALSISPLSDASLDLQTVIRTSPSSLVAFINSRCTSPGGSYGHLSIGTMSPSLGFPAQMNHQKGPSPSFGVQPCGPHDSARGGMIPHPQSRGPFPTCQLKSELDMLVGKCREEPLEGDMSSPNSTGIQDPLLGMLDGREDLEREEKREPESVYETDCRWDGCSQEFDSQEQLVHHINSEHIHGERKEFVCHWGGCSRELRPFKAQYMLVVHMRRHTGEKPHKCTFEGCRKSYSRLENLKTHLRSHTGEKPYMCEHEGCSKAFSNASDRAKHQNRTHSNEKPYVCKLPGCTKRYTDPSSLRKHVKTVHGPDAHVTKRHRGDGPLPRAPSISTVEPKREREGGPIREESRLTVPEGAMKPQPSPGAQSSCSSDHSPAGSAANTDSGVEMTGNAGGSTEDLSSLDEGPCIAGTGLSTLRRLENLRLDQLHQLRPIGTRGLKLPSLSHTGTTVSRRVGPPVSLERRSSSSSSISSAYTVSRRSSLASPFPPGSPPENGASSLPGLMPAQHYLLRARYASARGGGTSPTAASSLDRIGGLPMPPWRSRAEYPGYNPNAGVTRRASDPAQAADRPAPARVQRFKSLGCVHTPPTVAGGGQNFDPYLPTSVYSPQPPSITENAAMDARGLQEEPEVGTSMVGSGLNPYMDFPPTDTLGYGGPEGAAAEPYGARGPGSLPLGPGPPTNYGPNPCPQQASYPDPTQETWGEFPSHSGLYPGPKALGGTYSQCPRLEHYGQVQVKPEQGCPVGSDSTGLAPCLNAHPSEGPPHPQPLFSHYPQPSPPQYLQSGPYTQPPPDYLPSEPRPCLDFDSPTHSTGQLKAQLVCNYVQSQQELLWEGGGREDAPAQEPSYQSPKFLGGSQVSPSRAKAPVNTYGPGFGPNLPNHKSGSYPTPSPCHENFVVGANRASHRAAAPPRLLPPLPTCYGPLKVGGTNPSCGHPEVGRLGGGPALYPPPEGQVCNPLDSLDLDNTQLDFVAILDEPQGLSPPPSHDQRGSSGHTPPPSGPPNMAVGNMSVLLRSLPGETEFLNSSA
Test: IP-Western, flag-tagged Gli1WT transfected into BE3 cells

binding result: binds
B1: SuFu (other, human, UniProt Q9UMX1 1-484, looked up)
chain: MAELRPSGAPGPTAPPAPGPTAPPAFASLFPPGLHAIYGECRRLYPDQPNPLQVTAIVKYWLGGPDPLDYVSMYRNVGSPSANIPEHWHYISFGLSDLYGDNRVHEFTGTDGPSGFGFELTFRLKRETGESAPPTWPAELMQGLARYVFQSENTFCSGDHVSWHSPLDNSESRIQHMLLTEDPQMQPVQTPFGVVTFLQIVGVCTEELHSAQQWNGQGILELLRTVPIAGGPWLITDMRRGETIFEIDPHLQERVDKGIETDGSNLSGVSAKCAWDDLSRPPEDDEDSRSICIGTQPRRLSGKDTEQIRETLRRGLEINSKPVLPPINPQRQNGLAHDRAPSRKDSLESDSSTAIIPHELIRTRQLESVHLKFNQESGALIPLCLRGRLLHGRHFTYKSITGDMAITFVSTGVEGAFATEEHPYAAHGPWLQILLTEEFVEKMLEDLEDLTSPEEFKLPKEYSWPEKKLKVSILPDVVFDSPLH
notes: also called suppressor of fused
